{"source": "patent US20220023399A1", "about": "“BLOOD COMPONENT POTENTIATION OF LYTIC PROTEIN ANTI-BACTERIAL ACTIVITY AND METHODS AND USES THEREOF” (priority 2017, published 2022)", "molecules": {"B1": {"name": "PlySs2 (CF-301): antistaphylococcal lysin from a Streptococcus suis prophage; N-terminal CHAP domain, C-terminal SH3-type binding domain; SEQ ID NO:3 (protein, listed as Streptococcus suis)", "chain": "MTTVNEALNNVRAQVGSGVSVGNGECYALASWYERMISPDATVGLGAGVGWVSGAIGDTISAKNIGSSYNWQANGWTVSTSGPFKAGQIVTLGATPGNPYGHVVIVEAVDGDRLTILEQNYGGKRYPVRNYYSAASYRQQVVHYITPPGTVAQSAPNLAGSRSYRETGTMTVTVDALNVRRAPNTSGEIVAVYKRGESFDYDTVIIDVNGYVWVSYIGGSGKRNYVATGATKDGKRFGNAWGTFK"}}, "key": {"[1]": {"system": "S. aureus (strain not given)", "experiment": "MIC analysis of various lysins, chimeric lysins and antibiotics in MHB and human serum", "assay_type": "cell-based", "settings": "Table 14 (Example 2)", "experimental": "To further evaluate the binding domain relevance to the serum component effect, various chimerics were constructed by replacing or swapping out one binding domain for another. Chimeric lysins having the Sal1 CHAP catalytic domain with ClyS binding domain, PlySs2 (CF-301) binding domain, or lysostaphin binding domain were assayed for MIC using MHB versus human serum. the results are depicted below in TABLE 14."}, "[2]": {"system": "S. aureus (strain not given)", "experiment": "MIC assay in supplemented media (recapitulation of blood effect; delipidated serum with fatty acids)", "assay_type": "cell-based"}, "S. aureus strain MW2 [3]": {"system": "S. aureus strain MW2", "experiment": "Synergy time-kill assay", "assay_type": "cell-based", "settings": "human serum"}, "[4]": {"system": "S. aureus NRS 271 (MRSA, LRSA)", "experiment": "Checkerboard assay, additional MRSA strains", "assay_type": "cell-based", "settings": "paired agent not given"}, "S. aureus NRS 100 (MRSA)": {"system": "S. aureus NRS 100 (MRSA)", "experiment": "Checkerboard assay, additional MRSA strains", "assay_type": "cell-based", "settings": "paired agent not given"}, "S. aureus HPV 107 (MRSA)": {"system": "S. aureus HPV 107 (MRSA)", "experiment": "Checkerboard assay, additional MRSA strains", "assay_type": "cell-based", "settings": "paired agent not given"}, "[5]": {"system": "S. aureus CAIRD 456 (MRSA)", "experiment": "Checkerboard assay, additional MRSA strains", "assay_type": "cell-based", "settings": "paired agent not given"}, "S. aureus JMI 227 (MRSA)": {"system": "S. aureus JMI 227 (MRSA)", "experiment": "Checkerboard assay, additional MRSA strains", "assay_type": "cell-based", "settings": "paired agent not given"}, "[6]": {"system": "S. aureus JMI 1280 (MRSA)", "experiment": "Checkerboard assay, additional MRSA strains", "assay_type": "cell-based", "settings": "paired agent not given"}, "[7]": {"system": "S. aureus JMI 4789 (MRSA)", "experiment": "Checkerboard assay, additional MRSA strains", "assay_type": "cell-based", "settings": "paired agent not given"}, "S. aureus strain MW2 [8]": {"system": "S. aureus strain MW2", "experiment": "Transmission electron microscopy of lytic activity", "assay_type": "cell-based", "experimental": "FIG. 13 depicts TEM analysis of S. aureus strain MW2 treated with PlySs2 (CF-301) in either human serum (HuS) or MHB for 15 minutes.\nStaphylococci were treated with a range of PlySs2 (CF-301) concentrations for […] in either human serum or MHB before analysis by transmission electron microscopy (TEM). […] In addition to the more rapid bacteriolysis in serum, the lytic event was visually different in comparison to the event in MHB. In human serum, all bacteria are encased in a proteinaceous sheath presumably consisting of host proteins including HSA. […] In contrast, the lytic event in MHB appears as the classic cytoplasmic membrane bubbling and extrusion just prior to lysis.\nElectron Microscopy. Mid-log phase strain MW2 growing in either CAMHB or human serum (Sigma-Aldrich) was treated with the indicated concentrations of PlySs2 (CF-301) or buffer alone (control) at 37° C. for 15 minutes. The cells were then washed with 1× phosphate buffer (PB) and resuspended in a solution of 4% paraformaldehyde and 2% glutaraldehyde in 0.1 M cacodylate buffer (pH 7.4). The samples were post-fixed in 1% osmium tetroxide, block stained with uranyl acetate, and processed according to standard procedures by The Rockefeller University Electron Microscopy Service. Samples were visualized using a Tecnai™ Spirit BT Transmission Electron Microscope (FEI). […]"}, "[9]": {"system": "S. aureus (strain not given)", "experiment": "MIC analysis of various lysins, chimeric lysins and antibiotics in MHB and human serum", "assay_type": "cell-based", "settings": "Table 2"}, "S. aureus strain MW2 [10]": {"system": "S. aureus strain MW2", "settings": "CAMHB (Schuch 2014); cited from earlier work"}, "[11]": {"settings": "clinical grade, recombinant from E. coli; cited from earlier work"}, "S. aureus strain MW2 [12]": {"system": "S. aureus strain MW2", "experiment": "Lytic assay (loss of optical density) and specific activity"}, "[13]": {"settings": "medium head missing (human serum)"}}}
{"molecule": "B1", "values": [{"measurement": "Minimal inhibitory concentration, MHB", "setting": "[1]; MHB", "result": 32, "unit": "µg/mL"}, {"measurement": "Fold decrease in MIC", "setting": "[1]; human serum vs MHB", "result": 32}, {"measurement": "Minimal inhibitory concentration, Human serum", "setting": "[1]; human serum", "result": 1, "unit": "µg/mL"}, {"measurement": "Fold decrease in MIC", "setting": "[2]; 50% MHB/50% human serum (heat inactivated) + HSA, 40 mg/mL", "result": 4}, {"measurement": "Fold decrease in MIC", "setting": "[2]; 50% MHB/50% human serum (heat inactivated) + HuLYZ, 10 μg/mL", "result": 2}, {"measurement": "Fold decrease in MIC", "setting": "[2]; 50% MHB/50% human serum (heat inactivated) + HuLYZ, 10 μg/mL + HSA 40 mg/mL", "result": 16}, {"measurement": "Fold decrease in MIC", "setting": "[2]; 50% MHB/50% human serum (heat inactivated) + MouseSA, 40 mg/mL", "result": 1}, {"measurement": "Fold decrease in MIC", "setting": "[2]; 50% MHB/50% human serum (heat inactivated) + RabSA, 40 mg/mL", "result": 4}, {"measurement": "Fold decrease in MIC", "setting": "[2]; 50% MHB/50% human serum (heat inactivated) + RatSA, 40 mg/mL", "result": 2}, {"measurement": "Fold decrease in MIC", "setting": "[2]; MHB supplemented with HSA, 40 mg/mL", "result": 8}, {"measurement": "Fold decrease in MIC", "setting": "[2]; MHB supplemented with HuLYZ, 10 μg/mL", "result": 2}, {"measurement": "Fold decrease in MIC", "setting": "[2]; MHB supplemented with HuLYZ, 10 μg/mL + HSA 40 mg/mL", "result": 16}, {"measurement": "Fold decrease in MIC", "setting": "[2]; MHB supplemented with RabSA, 40 mg/mL", "result": 8}, {"measurement": "Fold decrease in CF-301 MIC compared to media alone", "setting": "[2]; delipidated human serum + Oleate (0.625 mg/mL)", "result": 8}, {"measurement": "Fold decrease in CF-301 MIC compared to media alone", "setting": "[2]; delipidated human serum + Palmitate (0.625 mg/mL)", "result": 16}, {"measurement": "Fold decrease in CF-301 MIC compared to media alone", "setting": "[2]; delipidated human serum + Palmitate + Oleate", "result": 16}, {"measurement": "concentration of each agent in PlySs2 (CF-301) + lysostaphin combination sterilizing at 24 hours", "setting": "S. aureus strain MW2 [3]", "result": 0.005, "unit": "µg/mL"}, {"measurement": "minimum concentration demonstrating synergy with daptomycin", "setting": "S. aureus strain MW2 [3]", "result": 0.025, "unit": "µg/mL"}, {"measurement": "fold decrease in minimum sterilizing concentration vs single agent", "setting": "S. aureus strain MW2 [3]; in combination with DAP", "result": 64, "unit": "fold"}, {"measurement": "ΣFICavg", "setting": "[4]; CAMHB", "result": 0.5}, {"measurement": "ΣFICmin", "setting": "[4]; CAMHB", "result": 0.38}, {"measurement": "ΣFICavg", "setting": "[4]; [13]", "result": 0.39}, {"measurement": "ΣFICmin", "setting": "[4]; [13]", "result": 0.25}, {"measurement": "ΣFICavg", "setting": "S. aureus NRS 100 (MRSA); CAMHB", "result": 0.75}, {"measurement": "ΣFICmin", "setting": "S. aureus NRS 100 (MRSA); CAMHB", "result": 0.5}, {"measurement": "ΣFICavg", "setting": "S. aureus NRS 100 (MRSA); [13]", "result": 0.29}, {"measurement": "ΣFICmin", "setting": "S. aureus NRS 100 (MRSA); [13]", "result": 0.25}, {"measurement": "ΣFICavg", "setting": "S. aureus HPV 107 (MRSA); CAMHB", "result": 0.64}, {"measurement": "ΣFICmin", "setting": "S. aureus HPV 107 (MRSA); CAMHB", "result": 0.5}, {"measurement": "ΣFICavg", "setting": "S. aureus HPV 107 (MRSA); [13]", "result": 0.44}, {"measurement": "ΣFICmin", "setting": "S. aureus HPV 107 (MRSA); [13]", "result": 0.38}, {"measurement": "ΣFICavg", "setting": "[5]; CAMHB", "result": 0.75}, {"measurement": "ΣFICmin", "setting": "[5]; CAMHB", "result": 0.5}, {"measurement": "ΣFICavg", "setting": "[5]; [13]", "result": 0.44}, {"measurement": "ΣFICmin", "setting": "[5]; [13]", "result": 0.38}, {"measurement": "ΣFICavg", "setting": "S. aureus JMI 227 (MRSA); CAMHB", "result": 0.64}, {"measurement": "ΣFICmin", "setting": "S. aureus JMI 227 (MRSA); CAMHB", "result": 0.5}, {"measurement": "ΣFICavg", "setting": "S. aureus JMI 227 (MRSA); [13]", "result": 0.29}, {"measurement": "ΣFICmin", "setting": "S. aureus JMI 227 (MRSA); [13]", "result": 0.25}, {"measurement": "ΣFICavg", "setting": "[6]; CAMHB", "result": 0.57}, {"measurement": "ΣFICmin", "setting": "[6]; CAMHB", "result": 0.5}, {"measurement": "ΣFICavg", "setting": "[6]; [13]", "result": 0.29}, {"measurement": "ΣFICmin", "setting": "[6]; [13]", "result": 0.25}, {"measurement": "ΣFICavg", "setting": "[7]; CAMHB", "result": 0.64}, {"measurement": "ΣFICmin", "setting": "[7]; CAMHB", "result": 0.5}, {"measurement": "ΣFICavg", "setting": "[7]; [13]", "result": 0.29}, {"measurement": "ΣFICmin", "setting": "[7]; [13]", "result": 0.25}, {"measurement": "concentration at which bacteriolytic activity was observed by TEM (only the highest tested)", "setting": "S. aureus strain MW2 [8]; MHB", "result": 5, "unit": "µg/mL"}, {"measurement": "bacteriolysis observed by TEM", "setting": "S. aureus strain MW2 [8]; human serum, all concentrations over a 100-fold range", "result": "widespread evidence of lysis"}, {"measurement": "Minimal inhibitory concentration, MHB", "setting": "[9]; MHB", "result": 32, "unit": "µg/mL"}, {"measurement": "Fold decrease in MIC", "setting": "[9]; human serum vs MHB", "result": 32}, {"measurement": "Minimal inhibitory concentration, Human serum", "setting": "[9]; human serum", "result": 1, "unit": "µg/mL"}, {"measurement": "minimum concentration required for synergy with daptomycin", "setting": "S. aureus strain MW2 [10]", "result": 4, "unit": "µg/mL"}, {"measurement": "pH range over which active", "setting": "[11]", "result": "6-9.7 pH"}, {"measurement": "temperature range over which active", "setting": "[11]", "result": "16-55 °C"}, {"measurement": "Fold increase in specific activity", "setting": "S. aureus strain MW2 [12]; supplement HuLYZ, 10 μg/mL", "result": 9.8}, {"measurement": "Fold increase in specific activity", "setting": "S. aureus strain MW2 [12]; supplement rHSA, 4%", "result": 17.8}, {"measurement": "Fold increase in specific activity", "setting": "S. aureus strain MW2 [12]; supplements rHSA, HuLYZ", "result": 25}]}
